The sequences below were run on Escherichia coli TOP10 (assay: shrunken log2 fold change of peptide-encoding DNA abundance (4.5 h post-induction vs induction); higher = less antimicrobial activity (less host growth inhibition)). Conditions: time post-induction: 4.5 h; library: site-saturation at positions 5, 18, 19, 20.
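Also: peptides expressed intracellularly from a pBAD plasmid library in pooled LB shake-flask culture, induced with 0.3% L-arabinose, DNA abundance read by NGS, three biological replicates, DESeq2 with apeglm shrinkage.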

Sequence	shrunken log2 fold change
RRIRARPPRLPRPRPRPGLWPRP	1.04
RRIRRRPPRLPRPRPRPCADPRP	0.0637
RRIRYRPPRLPRPRPRPCGWPRP	-0.00979
RRIRGRPPRLPRPRPRPINMPRP	-0.0846
RRIRQRPPRLPRPRPRPWPVPRP	0.103
RRIRKRPPRLPRPRPRPQIMPRP	-0.103
RRIRFRPPRLPRPRPRPWAHPRP	0.195
RRIRMRPPRLPRPRPRPNMQPRP	0.0607
RRIRWRPPRLPRPRPRPERVPRP	0.447
RRIRMRPPRLPRPRPRPNIIPRP	0.23
RRIRHRPPRLPRPRPRPKTSPRP	-0.0692
RRIRVRPPRLPRPRPRPEAPPRP	0.000205
RRIRCRPPRLPRPRPRPKSNPRP	-0.274
RRIRMRPPRLPRPRPRPFWRPRP	0.463
RRIRPRPPRLPRPRPRPIEPPRP	0.109
RRIRARPPRLPRPRPRPDMIPRP	-0.0395
RRIRWRPPRLPRPRPRPDDMPRP	-0.147
RRIRCRPPRLPRPRPRPACKPRP	-0.312
RRIRRRPPRLPRPRPRPYPRPRP	0.207
RRIRYRPPRLPRPRPRPTPEPRP	0.264
RRIRLRPPRLPRPRPRPKCEPRP	0.0288
RRIRQRPPRLPRPRPRPGITPRP	-0.103
RRIRGRPPRLPRPRPRPKEYPRP	-0.102
RRIRLRPPRLPRPRPRPEAGPRP	0.375
RRIRSRPPRLPRPRPRPRCQPRP	0.0737

Sequence	shrunken log2 fold change
RRIRSRPPRLPRPRPRPFVAPRP	-0.0664
RRIRARPPRLPRPRPRPLMEPRP	0.493
RRIRNRPPRLPRPRPRPQITPRP	-1.07
RRIRTRPPRLPRPRPRPLAYPRP	-0.982
RRIRVRPPRLPRPRPRPIWHPRP	-0.164
RRIRNRPPRLPRPRPRPDSIPRP	-0.307
RRIRIRPPRLPRPRPRPHWPPRP	0.00237
RRIRPRPPRLPRPRPRPFEWPRP	-0.124
RRIRHRPPRLPRPRPRPESLPRP	-0.245
RRIRWRPPRLPRPRPRPDNFPRP	-0.0334
RRIRGRPPRLPRPRPRPRYCPRP	0.295
RRIRLRPPRLPRPRPRPRKPPRP	0.751
RRIRGRPPRLPRPRPRPHQWPRP	0.134
RRIRGRPPRLPRPRPRPSMEPRP	0.467
RRIRGRPPRLPRPRPRPESGPRP	1.12
RRIRVRPPRLPRPRPRPLGAPRP	0.352
RRIRNRPPRLPRPRPRPTYDPRP	-0.396
RRIRSRPPRLPRPRPRPFKEPRP	-0.117
RRIRKRPPRLPRPRPRPWDGPRP	-0.0231
RRIRKRPPRLPRPRPRPKYKPRP	-0.19
RRIRQRPPRLPRPRPRPWIRPRP	-0.166
RRIRWRPPRLPRPRPRPHQFPRP	-0.843
RRIRDRPPRLPRPRPRPPQEPRP	0.559
RRIRWRPPRLPRPRPRPEVNPRP	0.321
RRIRFRPPRLPRPRPRPWEDPRP	0.0682

Sequence	shrunken log2 fold change
RRIRARPPRLPRPRPRPTLEPRP	0.388
RRIRRRPPRLPRPRPRPWLRPRP	-0.103
RRIRGRPPRLPRPRPRPPKNPRP	1.11
RRIRCRPPRLPRPRPRPLIFPRP	-0.514
RRIRQRPPRLPRPRPRPHYWPRP	0.0403
RRIRSRPPRLPRPRPRPHDNPRP	-0.308
RRIRCRPPRLPRPRPRPCTDPRP	0.0806
RRIRQRPPRLPRPRPRPGNVPRP	0.0829
RRIRPRPPRLPRPRPRPTEWPRP	0.0519
RRIRCRPPRLPRPRPRPKCWPRP	0.302
RRIRVRPPRLPRPRPRPDTKPRP	-0.26
RRIRRRPPRLPRPRPRPMQIPRP	0.58
RRIRLRPPRLPRPRPRPHCRPRP	-0.254
RRIRARPPRLPRPRPRPWDHPRP	-0.00959
RRIRARPPRLPRPRPRPQDQPRP	0.302
RRIRHRPPRLPRPRPRPRQHPRP	0.0285
RRIRSRPPRLPRPRPRPRKHPRP	0.0783
RRIRNRPPRLPRPRPRPYFHPRP	-0.474
RRIRVRPPRLPRPRPRPTHQPRP	0.209
RRIRYRPPRLPRPRPRPTQSPRP	0.0623
RRIRERPPRLPRPRPRPTCEPRP	-0.122
RRIRARPPRLPRPRPRPRGVPRP	0.682
RRIRDRPPRLPRPRPRPMRVPRP	0.304
RRIRFRPPRLPRPRPRPHRKPRP	0.306
RRIRWRPPRLPRPRPRPQEPPRP	0.316
